According to article PMC9482650, “Quantitative fragmentomics allow affinity mapping of interactomes” (Nature Communications, 2022):

Experiments:
Test in all cases: holdup assay
Set-up in all cases: key: below the threshold = too weak to quantify, mostly under pKd 3.1 to 4
GRIP2_6, Q9C0E4 = target: GRIP2_6, Q9C0E4
LDB3, O75112 = target: LDB3, O75112
DLG2_3, Q15700 = target: DLG2_3, Q15700
MPP2, Q14168 = target: T1, MPP2, Q14168
T1 sequence (Q14168 180-250, limits assumed, looked up): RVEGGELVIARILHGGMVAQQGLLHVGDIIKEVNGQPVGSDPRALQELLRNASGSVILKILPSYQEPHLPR

FRMPD2_1, Q68DX3 = target: FRMPD2_1, Q68DX3
FRMPD2_1, Q68DX3, sequence (Q68DX3 770-861): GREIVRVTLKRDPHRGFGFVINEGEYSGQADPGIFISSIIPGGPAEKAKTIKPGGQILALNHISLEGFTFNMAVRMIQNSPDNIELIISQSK

PDLIM1, O00151 = target: PDLIM1, O00151
PDLIM1, O00151, sequence (O00151 1-87): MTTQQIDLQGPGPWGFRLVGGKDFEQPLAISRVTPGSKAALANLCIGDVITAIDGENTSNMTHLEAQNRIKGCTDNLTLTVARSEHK

PDZRN3_1, Q9UPQ7 = target: T2, PDZRN3_1, Q9UPQ7
T2 sequence (Q9UPQ7 244-349, limits assumed, looked up): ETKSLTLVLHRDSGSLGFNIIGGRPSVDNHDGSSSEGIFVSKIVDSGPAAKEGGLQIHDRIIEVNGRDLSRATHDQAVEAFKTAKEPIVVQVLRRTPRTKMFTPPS

SNTB1, Q13884 = target: T3, SNTB1, Q13884
T3 sequence (Q13884 107-205, limits assumed, looked up): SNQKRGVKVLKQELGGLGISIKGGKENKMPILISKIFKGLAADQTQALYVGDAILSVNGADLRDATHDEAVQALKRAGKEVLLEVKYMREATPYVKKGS

GORASP2, Q9H8Y8 = target: GORASP2, Q9H8Y8
DLG3_1, Q92796 = target: T4, DLG3_1, Q92796
T4 sequence (Q92796 125-227, limits assumed, looked up): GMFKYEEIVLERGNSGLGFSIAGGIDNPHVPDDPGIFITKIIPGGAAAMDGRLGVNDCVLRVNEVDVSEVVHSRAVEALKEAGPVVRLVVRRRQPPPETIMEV

GRIP2_5, Q9C0E4 = target: GRIP2_5, Q9C0E4
GRIP2_5, Q9C0E4, sequence (Q9C0E4 544-642): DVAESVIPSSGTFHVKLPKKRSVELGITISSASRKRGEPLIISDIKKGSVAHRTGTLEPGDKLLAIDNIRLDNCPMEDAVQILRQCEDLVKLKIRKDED

HTRA4, P83105 = target: T5, HTRA4, P83105
T5 sequence (P83105 378-476, limits assumed, looked up): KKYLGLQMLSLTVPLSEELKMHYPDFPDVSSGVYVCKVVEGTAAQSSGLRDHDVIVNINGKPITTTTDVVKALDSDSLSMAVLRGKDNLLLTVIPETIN

MPP6, Q9NZW5 = target: T6, MPP6, Q9NZW5
T6 sequence (Q9NZW5 125-219, limits assumed, looked up): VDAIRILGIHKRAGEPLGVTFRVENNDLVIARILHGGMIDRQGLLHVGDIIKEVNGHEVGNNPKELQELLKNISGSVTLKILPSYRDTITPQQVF

DLG2_2, Q15700 = target: DLG2_2, Q15700
LRRC7, Q96NW7 = target: T7, LRRC7, Q96NW7
T7 sequence (Q96NW7 1440-1537, limits assumed, looked up): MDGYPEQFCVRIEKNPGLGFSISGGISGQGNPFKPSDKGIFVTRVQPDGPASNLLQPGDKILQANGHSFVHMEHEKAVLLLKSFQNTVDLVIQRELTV

GRIP2_3, Q9C0E4 = target: GRIP2_3, Q9C0E4
GRIP2_3, Q9C0E4, sequence (Q9C0E4 238-339): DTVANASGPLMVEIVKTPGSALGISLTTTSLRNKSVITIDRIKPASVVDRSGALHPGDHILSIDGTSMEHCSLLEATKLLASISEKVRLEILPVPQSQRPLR

Inadl_1, Q8NI35 = target: Inadl_1, Q8NI35
Inadl_1, Q8NI35, sequence (Q8NI35 113-229): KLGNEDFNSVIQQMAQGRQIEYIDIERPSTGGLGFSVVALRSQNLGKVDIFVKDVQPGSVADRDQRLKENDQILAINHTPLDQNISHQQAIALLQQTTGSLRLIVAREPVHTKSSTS

NHERF3_1, Q5T2W1 = target: T8, NHERF3_1, Q5T2W1
T8 sequence (Q5T2W1 4-100, limits assumed, looked up): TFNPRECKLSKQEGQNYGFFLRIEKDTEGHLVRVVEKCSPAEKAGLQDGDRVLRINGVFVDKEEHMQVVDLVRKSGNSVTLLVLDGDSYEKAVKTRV

TJP1_2, Q07157 = target: TJP1_2, Q07157
TJP1_2, Q07157, sequence (Q07157 181-274): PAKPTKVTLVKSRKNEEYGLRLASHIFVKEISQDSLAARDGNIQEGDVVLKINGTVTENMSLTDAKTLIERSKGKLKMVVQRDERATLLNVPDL

LIN7B, Q9HAP6 = target: T9, LIN7B, Q9HAP6
T9 sequence (Q9HAP6 88-185, limits assumed, looked up): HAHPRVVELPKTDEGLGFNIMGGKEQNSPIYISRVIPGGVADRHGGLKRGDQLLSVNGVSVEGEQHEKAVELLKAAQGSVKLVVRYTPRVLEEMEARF

LNX1_3, Q8TBB1 = target: LNX1_3, Q8TBB1
LNX1_3, Q8TBB1, sequence (Q8TBB1 500-596): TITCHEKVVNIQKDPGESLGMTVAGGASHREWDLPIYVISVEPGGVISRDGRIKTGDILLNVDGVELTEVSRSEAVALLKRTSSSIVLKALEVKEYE

ARHGEF12, Q9NZN5-2 = target: ARHGEF12, Q9NZN5-2
ARHGEF12, Q9NZN5-2, sequence (Q9NZN5 other isoform, or with tags, fused parts or gaps): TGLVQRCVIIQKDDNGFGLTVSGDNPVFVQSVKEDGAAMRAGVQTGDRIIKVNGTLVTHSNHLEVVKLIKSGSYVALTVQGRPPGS

MAST2, Q6P0Q8 = target: MAST2, Q6P0Q8
MAST2, Q6P0Q8, sequence (Q6P0Q8 1099-1202): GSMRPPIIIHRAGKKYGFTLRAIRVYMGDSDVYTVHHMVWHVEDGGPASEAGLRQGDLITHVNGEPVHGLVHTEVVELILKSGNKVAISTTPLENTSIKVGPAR

NHERF3_4, Q5T2W1 = target: T10, NHERF3_4, Q5T2W1
T10 sequence (Q5T2W1 373-468, limits assumed, looked up): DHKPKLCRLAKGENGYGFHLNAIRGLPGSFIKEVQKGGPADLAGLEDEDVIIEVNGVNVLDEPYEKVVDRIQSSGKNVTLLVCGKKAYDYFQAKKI

SCRIB_2, Q14160 = target: SCRIB_2, Q14160
SCRIB_2, Q14160, sequence (Q14160 857-960): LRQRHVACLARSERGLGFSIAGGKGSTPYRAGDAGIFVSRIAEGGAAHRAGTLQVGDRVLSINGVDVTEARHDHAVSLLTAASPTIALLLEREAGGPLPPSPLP

TX1BP3, O14907 = target: T11, TX1BP3, O14907
T11 sequence (O14907 10-122, limits assumed, looked up): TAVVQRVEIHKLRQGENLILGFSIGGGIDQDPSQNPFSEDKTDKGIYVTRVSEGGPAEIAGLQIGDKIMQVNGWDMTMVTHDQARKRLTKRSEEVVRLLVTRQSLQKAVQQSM

[1] = plain residues with an end cap or a label only (N-terminal biotin on a linker: ttds)
[2] = plain residues with an end cap or a label only (N-terminal biotin on a linker: ahx)

GRIP2_6, Q9C0E4, sequence (Q9C0E4 648-740): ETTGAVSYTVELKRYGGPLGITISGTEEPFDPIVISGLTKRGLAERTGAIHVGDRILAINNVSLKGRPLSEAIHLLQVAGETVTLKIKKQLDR
LDB3, O75112, sequence (O75112 1-94): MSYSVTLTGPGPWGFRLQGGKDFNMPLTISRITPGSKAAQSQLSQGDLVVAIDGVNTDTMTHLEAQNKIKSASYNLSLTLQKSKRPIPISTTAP

For NQLAWFDTDL [CTNNB1, P35222], the pKd (GRIP2_6, Q9C0E4; [1]) was “below the threshold”, the pKd (LDB3, O75112; [1]) was 3.99 and the pKd (DLG2_3, Q15700; [1]) was “below the threshold”. For the same binder, the pKd (MPP2, Q14168; [1]) was “below the threshold”, the pKd (FRMPD2_1, Q68DX3; [1]) was “below the threshold” and the pKd (PDLIM1, O00151; [1]) was 4.16. For the same binder, the pKd (PDZRN3_1, Q9UPQ7; [1]) was “below the threshold”, the pKd (SNTB1, Q13884; [1]) was “below the threshold” and the pKd (GORASP2, Q9H8Y8; [1]) was “below the threshold”. For the same binder, the pKd (DLG3_1, Q92796; [1]) was “below the threshold”, the pKd (GRIP2_5, Q9C0E4; [1]) was “below the threshold” and the pKd (HTRA4, P83105; [1]) was “below the threshold”. For the same binder, the pKd (MPP6, Q9NZW5; [1]) was “below the threshold”, the pKd (DLG2_2, Q15700; [1]) was “below the threshold” and the pKd (LRRC7, Q96NW7; [1]) was 3.94. The pKd (GRIP2_3, Q9C0E4; [1]) was “below the threshold”, the pKd (Inadl_1, Q8NI35; [1]) was “below the threshold” and the pKd (NHERF3_1, Q5T2W1; [1]) was 3.66. The pKd (TJP1_2, Q07157; [1]) was “below the threshold”, the pKd (LIN7B, Q9HAP6; [1]) was “below the threshold” and the pKd (LNX1_3, Q8TBB1; [1]) was “below the threshold”. For the same binder, the pKd (ARHGEF12, Q9NZN5-2; [1]) was 4.2, the pKd (MAST2, Q6P0Q8; [1]) was 6.04 and the pKd (NHERF3_4, Q5T2W1; [1]) was “below the threshold”. For the same binder, the pKd (SCRIB_2, Q14160; [1]) was 3.57 and the pKd (TX1BP3, O14907; [1]) was 5.99.

GIFPTLTSPL [SHROOM3, Q8TF72] was tested, and the pKd (GRIP2_6, Q9C0E4; [2]) was “below the threshold”, the pKd (LDB3, O75112; [2]) was “below the threshold” and the pKd (DLG2_3, Q15700; [2]) was “below the threshold”. For the same binder, the pKd (MPP2, Q14168; [2]) was “below the threshold”, the pKd (FRMPD2_1, Q68DX3; [2]) was “below the threshold” and the pKd (PDLIM1, O00151; [2]) was 3.61. The pKd (PDZRN3_1, Q9UPQ7; [2]) was 3.49, the pKd (SNTB1, Q13884; [2]) was “below the threshold” and the pKd (GORASP2, Q9H8Y8; [2]) was “below the threshold”. The pKd (DLG3_1, Q92796; [2]) was “below the threshold”, the pKd (GRIP2_5, Q9C0E4; [2]) was “below the threshold” and the pKd (HTRA4, P83105; [2]) was “below the threshold”. For the same binder, the pKd (MPP6, Q9NZW5; [2]) was “below the threshold”, the pKd (DLG2_2, Q15700; [2]) was “below the threshold” and the pKd (LRRC7, Q96NW7; [2]) was “below the threshold”. The pKd (GRIP2_3, Q9C0E4; [2]) was “below the threshold”, the pKd (Inadl_1, Q8NI35; [2]) was “below the threshold” and the pKd (NHERF3_1, Q5T2W1; [2]) was 4.2. The pKd (TJP1_2, Q07157; [2]) was “below the threshold”, the pKd (LIN7B, Q9HAP6; [2]) was “below the threshold” and the pKd (LNX1_3, Q8TBB1; [2]) was “below the threshold”. For the same binder, the pKd (ARHGEF12, Q9NZN5-2; [2]) was 4.26, the pKd (MAST2, Q6P0Q8; [2]) was 4.25 and the pKd (NHERF3_4, Q5T2W1; [2]) was 3.95. For the same binder, the pKd (SCRIB_2, Q14160; [2]) was “below the threshold” and the pKd (TX1BP3, O14907; [2]) was 3.65.
